Target: Gab1^F627/659 (Y627F/Y659F) (mouse) (UniProt Q9QYY0)
Sequence of UniProt Q9QYY0 (Q9QYY0 whole entry, stated change not applied): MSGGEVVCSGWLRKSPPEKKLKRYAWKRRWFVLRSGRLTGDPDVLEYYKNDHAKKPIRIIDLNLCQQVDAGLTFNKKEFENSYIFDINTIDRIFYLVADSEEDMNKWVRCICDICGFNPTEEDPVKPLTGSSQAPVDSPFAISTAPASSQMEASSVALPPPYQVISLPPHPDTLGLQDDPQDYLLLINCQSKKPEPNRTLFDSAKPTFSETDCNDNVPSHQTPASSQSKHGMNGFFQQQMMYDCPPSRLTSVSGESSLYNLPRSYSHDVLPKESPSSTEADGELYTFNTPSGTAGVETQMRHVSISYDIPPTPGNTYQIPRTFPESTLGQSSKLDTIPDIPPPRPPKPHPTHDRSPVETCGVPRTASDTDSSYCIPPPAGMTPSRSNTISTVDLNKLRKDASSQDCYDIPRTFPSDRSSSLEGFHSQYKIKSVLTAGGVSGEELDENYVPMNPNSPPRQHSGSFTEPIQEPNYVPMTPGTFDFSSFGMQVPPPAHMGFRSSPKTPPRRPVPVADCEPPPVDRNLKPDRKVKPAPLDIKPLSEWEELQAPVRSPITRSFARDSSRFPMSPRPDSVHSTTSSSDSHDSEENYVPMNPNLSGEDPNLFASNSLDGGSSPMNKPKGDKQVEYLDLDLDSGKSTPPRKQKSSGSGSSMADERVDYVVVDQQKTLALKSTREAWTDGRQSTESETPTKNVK

## p85, the regulatory subunit of PI-3 kinase (from UniProt P26450 1-724) (natural protein)
  Gab1-associated PI-3 kinase activity in anti-Gab1 immunoprecipitates after EGF treatment (100 ng/ml, five minutes), relative to wild type Gab1: 2 fold
  basal PI-3 kinase activity in anti-Gab1 immunoprecipitates (PIP3 production), relative to wild type Gab1: 1.6 fold

— article PMC534114
